Test results from PMC10033409, “Autoregulation of GPCR signalling through the third intracellular loop” (Nature, 2023).

B1: DRD3 (protein, UniProt P35462 1-400, looked up)
D(3) dopamine receptor: MASLSQLSGHLNYTCGAENSTGASQARPHAYYALSYCALILAIVFGNGLVCMAVLKERALQTTTNYLVVSLAVADLLVATLVMPWVVYLEVTGGVWNFSRICCDVFVTLDVMMCTASILNLCAISIDRYTAVVMPVHYQHGTGQSSCRRVALMITAVWVLAFAVSCPLLFGFNTTGDPTVCSISNPDFVIYSSVVSFYLPFGVTVLVYARIYVVLKQRRRKRILTRQNSQCNSVRPGFPQQTLSPDPAHLELKRYYSICQDTALGGPGFQERGGELKREEKTRNSLSPTIAPKLSLEVRKLSNGRLSTSLKLGPLQPRGVPLREKKATQMVAIVLGAFIVCWLPFFLTHVLNTHCQTCHVSPELYSATTWLGYVNSALNPVIYTTFNIEFRKAFLKILSC
B2: CNR1 (protein, UniProt P21554 1-472, looked up)
Cannabinoid receptor 1: MKSILDGLADTTFRTITTDLLYVGSNDIQYEDIKGDMASKLGYFPQKFPLTSFRGSPFQEKMTAGDNPQLVPADQVNITEFYNKSLSSFKENEENIQCGENFMDIECFMVLNPSQQLAIAVLSLTLGTFTVLENLLVLCVILHSRSLRCRPSYHFIGSLAVADLLGSVIFVYSFIDFHVFHRKDSRNVFLFKLGGVTASFTASVGSLFLTAIDRYISIHRPLAYKRIVTRPKAVVAFCLMWTIAIVIAVLPLLGWNCEKLQSVCSDIFPHIDETYLMFWIGVTSVLLLFIVYAYMYILWKAHSHAVRMIQRGTQKSIIIHTSEDGKVQVTRPDQARMDIRLAKTLVLILVVLIICWGPLLAIMVYDVFGKMNKLIKTVFAFCSMLCLLNSTVNPIIYALRSKDLRHAFRSMFPSCEGTAQPLDNSMGDSDCLHKHANNAASVHRAAESCIKSTVKIAKVTMSVSTDTSAEAL
B3: ADA1A (protein, UniProt P35348 1-466, looked up)
Alpha-1A adrenergic receptor: MVFLSGNASDSSNCTQPPAPVNISKAILLGVILGGLILFGVLGNILVILSVACHRHLHSVTHYYIVNLAVADLLLTSTVLPFSAIFEVLGYWAFGRVFCNIWAAVDVLCCTASIMGLCIISIDRYIGVSYPLRYPTIVTQRRGLMALLCVWALSLVISIGPLFGWRQPAPEDETICQINEEPGYVLFSALGSFYLPLAIILVMYCRVYVVAKRESRGLKSGLKTDKSDSEQVTLRIHRKNAPAGGSGMASAKTKTHFSVRLLKFSREKKAAKTLGIVVGCFVLCWLPFFLVMPIGSFFPDFKPSETVFKIVFWLGYLNSCINPIIYPCSSQEFKKAFQNVLRIQCLCRKQSSKHALGYTLHPPSQAVEGQHKDMVRIPVGSRETFYRISKTDGVCEWKFFSSMPRGSARITVSKDQSSCTTARVRSKSFLQVCCCVGPSTPSLDKNHQVPTIKVHTISLSENGEEV
B4: CCK2 (protein, UniProt P32239 1-447, looked up)
Gastrin/cholecystokinin type …: MELLKLNRSVQGTGPGPGASLCRPGAPLLNSSSVGNLSCEPPRIRGAGTRELELAIRITLYAVIFLMSVGGNMLIIVVLGLSRRLRTVTNAFLLSLAVSDLLLAVACMPFTLLPNLMGTFIFGTVICKAVSYLMGVSVSVSTLSLVAIALERYSAICRPLQARVWQTRSHAARVIVATWLLSGLLMVPYPVYTVVQPVGPRVLQCVHRWPSARVRQTWSVLLLLLLFFIPGVVMAVAYGLISRELYLGLRFDGDSDSDSQSRVRNQGGLPGAVHQNGRCRPETGAVGEDSDGCYVQLPRSRPALELTALTAPGPGSGSRPTQAKLLAKKRVVRMLLVIVVLFFLCWLPVYSANTWRAFDGPGAHRALSGAPISFIHLLSYASACVNPLVYCFMHRRFRQACLETCARCCPRPPRARPRALPDEDPPTPSIASLSRLSYTTISTLGPG
B5: 5HT2C (protein, UniProt P28335 33-458, looked up)
5-hydroxytryptamine receptor …: IVTDIFNTSDGGRFKFPDGVQNWPALSIVIIIIMTIGGNILVIMAVSMEKKLHNATNYFLMSLAIADMLVGLLVMPLSLLAILYDYVWPLPRYLCPVWISLDVLFSTASIMHLCAISLDRYVAIRNPIEHSRFNSRTKAIMKIAIVWAISIGVSVPIPVIGLRDEEKVFVNNTTCVLNDPNFVLIGSFVAFFIPLTIMVITYCLTIYVLRRQALMLLHGHTEEPPGLSLDFLKCCKRNTAEEENSANPNQDQNARRRKKKERRPRGTMQAINNERKASKVLGIVFFVFLIMWCPFFITNILSVLCEKSCNQKLMEKLLNVFVWIGYVCSGINPLVYTLFNKIYRRAFSNYLRCNYKVEKKPPVRQIPRVAATALSGRELNVNIYRHTNEPVIEKASDNEPGIEMQVENLELPVNPSSVVSERISSV
B6: Nb6B9: nanobody that binds the receptor’s cytosolic cavity in the active state (antibody, V domains shown)
VH: QVQLQESGGGLVQAGGSLRLSCAASGSIFALNIMGWYRQAPGKQRELVAAIHSGGTTNYANSVKGRFTISRDNAANTVYLQMNSLKPEDTAVYYCNVKDFGAIIYDYDYWGQGTQVTVSS

Experiments:
PTH1R–Gq peptide = assay: PTH1R-luciferase complementation reporter assay, Gq peptide; assay type: biochemical, human; settings: PTH1R construct named by the receptor or protein whose sequence replaces ICL3 (WT = wild-type); Y axis of Figure 5G
Procedure: For PTH1R luciferase complementation reporter assays, cells were seeded the day prior to transfection at 25-30% confluence on 12-well plates. For each transfection, 0.5 μg DNA, 1.5 μl X-tremeGENE HP, and 100 μl Opti-MEM were combined, incubated for 15-20 min, and added to seeded wells. For each mutant, PTH1R-Gs peptide, PTH1R-Gq peptide and PTH1R-(no peptide) constructs were transfected in parallel. Spep and Qpep constructs were transfected 24 h prior to collection, and no-peptide constructs were transfected 18 h before collection. […] Media in each well was used to gently shear and resuspend the cells by pipetting. The cell mixture was centrifuged (3 min, 300g) and the media was aspirated. Cell pellet was resuspended in 1 ml PBS and centrifuged again as above. […] Cellular debris was removed by centrifugation (1,000g for 1 min). To collect additional vesicles, debris was resuspended in 0.3 ml PBS, briefly vortexed, and centrifuged again (1,000g for 1 min). The ~0.9 ml of combined decanted supernatant was centrifuged one additional time (1,000g for 2 min) to better remove cellular debris. […] Vesicle samples were collected in a 96-well clear bottom plate and assayed for TagRFP fluorescence (Tecan Spark, excitation 521 nm, emission 585 nm, gain 150). For each set of constructs for a given […] ([…] control), samples were diluted to the lowest TagRFP counts. […] The plate was tapped 2-3 times to mix, and the kinetic read was resumed. Moving averages were computed for each kinetic trace (3-point averages for 5 min equilibration, 8-point moving averages post-drug treatment). Each kinetic trace was normalized to the last point of the pre-drug equilibration. The maximum luminescence value that appeared stable over time was used for further analysis. Specific Spep and Qpep signals were calculated by subtracting the control value from the Spep value and the Qpep value for a given experiment.

PTH1R–Gs peptide = assay: PTH1R-luciferase complementation reporter assay, Gs peptide; assay type: biochemical, human; settings: PTH1R construct named by the receptor or protein whose sequence replaces ICL3 (WT = wild-type); X axis of Figure 5G
Procedure: For PTH1R luciferase complementation reporter assays, cells were seeded the day prior to transfection at 25–30% confluence on 12-well plates. For each transfection, 0.5 µg DNA, 1.5 µl X-tremeGENE HP, and 100 µl Opti-MEM were combined, incubated for 15–20 min, and added to seeded wells. […] Spep and Qpep constructs were transfected 24 h prior to collection, and no-peptide constructs were transfected 18 h before collection.
Expressed PTH1R-luciferase complementation constructs were vesiculated as previously described, with modifications for smaller sample volume[25]. Media in each well was used to gently shear and resuspend the cells by pipetting. The cell mixture was centrifuged (3 min, 300g) and the media was aspirated. Cell pellet was resuspended in 1 ml PBS and centrifuged again as above. Cells were resuspended again in 0.6 ml vesiculation buffer (10 mM HEPES pH 7.4, 150 mM NaCl, 20 mM CaCl2, 2 µg ml^−1 aprotinin, 2 µg ml^−1 leupeptin, 2 mM N-ethylmaleimide) and incubated at 30 °C with shaking at 180 rpm for 2 h. Cellular debris was removed by centrifugation (1,000g for 1 min). To collect additional vesicles, debris was resuspended in 0.3 ml PBS, briefly vortexed, and centrifuged again (1,000g for 1 min). The ~0.9 ml of combined decanted supernatant was centrifuged one additional time (1,000g for 2 min) to better remove cellular debris. Vesicles were collected by centrifugation (3,200g for 40 min at 4 °C) and washed in 0.5 ml assay buffer. Centrifugation step was repeated, and vesicles were resuspended in 0.1 ml assay buffer.
45 µl of each sample was transferred to an opaque 96-well flat bottom plate. 45 µl of Nano-Glo Substrate (Promega N1110) diluted 1:50 in assay buffer was added to each well in the new plate. After tapping the plate to collect liquid at the bottom of the well, a kinetic luminescence read was started (500 ms integration, continuous for 40 min) and luminescence signal was tracked. […] The plate was tapped 2–3 times to mix, and the kinetic read was resumed. Moving averages were computed for each kinetic trace (3-point averages for 5 min equilibration, 8-point moving averages post-drug treatment). Each kinetic trace was normalized to the last point of the pre-drug equilibration. The maximum luminescence value that appeared stable over time was used for further analysis. Specific Spep and Qpep signals were calculated by subtracting the control value from the Spep value and the Qpep value for a given experiment.

[1] = molecular target: β2AR ICL3 FRET sensor, β2AR(L258Azi/Y350Azi/∆351–413) (Homo sapiens, UniProt P07550, L258F/Y350F); assay: Time-correlated single photon counting FRET assay, β2AR ICL3 FRET sensor (AZDye488/AZDye546); settings: in combination with isoproterenol
Procedure: Cell membranes were prepared following the procedure in ‘Crude cell membrane extracts’ through the first ultracentrifugation step (135,000g, 25 min, 4 °C). […] Solution was homogenized, first by passing through a 1 ml micropipette 10 times, then passing through a 20-gauge needle 10 times. To initiate the reaction, sodium ascorbate (50 mM) was added to the mixture and mixed by pipetting (2 ml final volume). Reactions were incubated with mild shaking (500 rpm) for 30 min at 25 °C.
For conditions without drug, peptide or nanobody, an equivalent volume of assay buffer was added. Reactions were equilibrated for 5 min prior to reading. […] Time-resolved fluorescence decay data were fit to the equation: Decay=α1e^−t/τ^1+α2e^−t/τ^2+α3e^−t/τ^3
Amplitude-weighted average lifetimes (τavg) were calculated from the three-exponential decay equation: τavg=(α1τ1+α2τ2+α3τ3)/(α1+α2+α3)
Each condition was performed in technical duplicate or triplicate, depending on sensor yield.

[2] = tested on: β2AR–Gs peptide FRET sensor; assay: ∆FRET assay, β2AR–Gs peptide SPASM FRET sensor

Row | Molecule | Specific Peptide Signal, Gq (Average) (PTH1R–Gq peptide) | Specific Peptide Signal, Gs (Average) (PTH1R–Gs peptide) | effect on FRET efficiency of the ICL3 FRET sensor treated with isoproterenol [1] | effect on agonist-induced FRET of β2AR–G peptide sensor ([2]; wild-type β2AR–Gs peptide FRET sensor) | effect on agonist-induced FRET of β2AR–G peptide sensor ([2]; β2AR(∆ICL3), Gs and Gq peptide sensors)
1 | B1 | 0.08 | 0.72 | – | – | –
2 | B2 | 0.10 | 0.53 | – | – | –
3 | B3 | 0.14 | 0.59 | – | – | –
4 | B4 | 0.12 | 0.42 | – | – | –
5 | B5 | -0.00493 | 0.48 | – | – | –
6 | B6 | – | – | quenched | significantly quenched FRET | quenched the interactions of both the Gs and Gq peptides with the receptor
